# Measured values published in patent publication US20080213270.
# Tested on: Neurotensin (1-13)
substance,measurement,value
"neurolysin (NLN), mouse mast cell-associated",NT degradation by A23187-activated BMCMCs transduced with shRNA (percentage of NT remaining),mMC-CPA- or NL-shRNA-transduced BMCMCs also exhibited significantly reduced ability to degrade NT after activation with A23187 (5 uM)
same,NT degradation by membrane or cytosol preparations of mouse BMCMCs (percentage of NT remaining),"either membrane or cytosol preparations of mouse BMCMCs degraded NT, an ability that was almost completely inhibited by the NLN inhibitor, Pro-Ile (10 mM)"
